According to patent US20140087995A1 (published 2014):
Numbered stars: 1 amine (or outer) side, 2 acyl side, 3 side chain; on linkers, the order of the positions; unused ones are H or OH. Bridge positions count the residues as written; N and C are the ends. * marks the point of attachment. C20 diacid = O=C(O)CCCCCCCCCCCCCCCCCCC(=O)*; γGlu = O=C(O)[C@H](CCC(=O)[*:2])N[*:1]

T1: human calcitonin receptor (human, UniProt P30988 25-474)
T1 construct: whole, on cells; membranes of stably transfected BHK cells (Assay VII); also called hCTR; hCT
T1 sequence (looked up): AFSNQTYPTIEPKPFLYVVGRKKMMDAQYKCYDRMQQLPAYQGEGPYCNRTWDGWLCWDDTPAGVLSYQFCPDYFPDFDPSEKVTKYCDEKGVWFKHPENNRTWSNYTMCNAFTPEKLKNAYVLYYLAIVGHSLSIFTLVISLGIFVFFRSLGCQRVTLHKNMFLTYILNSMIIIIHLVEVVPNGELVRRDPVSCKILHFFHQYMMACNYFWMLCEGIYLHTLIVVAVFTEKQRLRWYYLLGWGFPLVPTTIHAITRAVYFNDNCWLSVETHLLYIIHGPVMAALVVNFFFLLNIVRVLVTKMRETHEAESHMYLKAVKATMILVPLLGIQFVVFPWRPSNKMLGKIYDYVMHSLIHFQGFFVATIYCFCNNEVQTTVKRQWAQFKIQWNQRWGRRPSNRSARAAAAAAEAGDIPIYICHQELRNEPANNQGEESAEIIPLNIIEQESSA

T2: human amylin receptor (amylin 3(a) receptor: human calcitonin receptor with RAMP-3) (human, UniProt P30988 25-474; O60896 24-148)
T2 sequence (looked up) 1: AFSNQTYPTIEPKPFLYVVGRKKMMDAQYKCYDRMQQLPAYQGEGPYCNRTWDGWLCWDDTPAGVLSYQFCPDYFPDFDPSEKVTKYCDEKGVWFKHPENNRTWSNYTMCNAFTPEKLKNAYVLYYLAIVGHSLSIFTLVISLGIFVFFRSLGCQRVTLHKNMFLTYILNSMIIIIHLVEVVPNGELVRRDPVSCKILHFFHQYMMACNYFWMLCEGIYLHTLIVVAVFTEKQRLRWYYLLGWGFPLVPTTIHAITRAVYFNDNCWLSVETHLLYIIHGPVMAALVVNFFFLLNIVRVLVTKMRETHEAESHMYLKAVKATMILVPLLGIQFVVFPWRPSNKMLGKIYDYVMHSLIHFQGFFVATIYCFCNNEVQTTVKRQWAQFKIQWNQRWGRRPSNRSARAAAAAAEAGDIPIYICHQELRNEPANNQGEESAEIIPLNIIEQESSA
T2 sequence (looked up) 2: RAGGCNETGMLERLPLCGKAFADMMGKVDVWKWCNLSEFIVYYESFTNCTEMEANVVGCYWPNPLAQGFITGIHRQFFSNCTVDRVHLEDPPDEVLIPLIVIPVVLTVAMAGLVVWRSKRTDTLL

T3: human calcitonin receptor (human, UniProt P30988 25-474)
T3 sequence (looked up): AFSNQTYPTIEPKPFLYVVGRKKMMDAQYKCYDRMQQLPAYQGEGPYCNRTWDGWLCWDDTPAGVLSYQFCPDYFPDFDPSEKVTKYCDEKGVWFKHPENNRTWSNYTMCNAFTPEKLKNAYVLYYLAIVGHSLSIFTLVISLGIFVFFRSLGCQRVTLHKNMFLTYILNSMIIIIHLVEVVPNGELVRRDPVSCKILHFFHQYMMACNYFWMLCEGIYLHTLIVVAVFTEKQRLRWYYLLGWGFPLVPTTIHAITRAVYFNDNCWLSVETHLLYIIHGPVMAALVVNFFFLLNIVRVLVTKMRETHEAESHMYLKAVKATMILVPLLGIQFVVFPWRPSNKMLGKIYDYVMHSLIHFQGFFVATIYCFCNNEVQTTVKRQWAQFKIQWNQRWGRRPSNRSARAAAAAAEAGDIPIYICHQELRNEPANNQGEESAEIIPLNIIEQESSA


How the values were obtained:
[1] = biological target: T1, human calcitonin receptor; assay: IC50 on human calcitonin receptor divided by IC50 on human amylin receptor (SPA competition)
Experimental: The resulting pellet was resuspended, homogenized and centrifuged (20.000 rpm, 15 min) in a buffer containing 20 mM Na-HEPES and 0.1 mM EDTA (pH 7.4, buffer 2). The resulting pellet was resuspended in buffer 2 and protein concentration was measured (BCA protein Assay, Pierce). The homogenate was kept cold during the whole procedure. The membranes were kept at −80° C. until use. The assay was performed in a 384 well Optiplate (PerkinElmer) in a total volume of 40 ul. Membranes were mixed with SPA beads. Final concentration of membranes 35 ng/μL final and SPA beads was 0.05 mg/well. Test-compounds were dissolved in DMSO and further diluted in assay buffer (50 mM Hepes, pH 7.4, 1 mM CaCl2, 5 mM MgCl₂, 0.1% OA and 0.02% Tween20). […] The final mixture was incubated with shaking at 400 rpm for 120 min at 25° C. prior to centrifugation (1500 rpm, 10 min). Samples were analyzed on TopCounter™ (Packard). The IC₅₀ was calculated using (one site binding competition analysis) GraphPad Prism5 as a measure of receptor affinity.
Membranes were prepared in the following way; the cells were rinsed with PBS and incubated with Versene for approximately 5 min before harvesting. The cells were flushed with PBS and the cell-suspension was centrifuged for 5 min at 1000 rpm. Cells were homogenized (Ultrathurrax) in a buffer containing 20 mM Na-HEPES and 10 mM EDTA (pH 7.4) and centrifuged at 20.000 rpm for 15 min. The resulting pellet was resuspended, homogenized and centrifuged (20.000 rpm, 15 min) in a buffer containing 20 mM Na-HEPES and 0.1 mM EDTA (pH 7.4, buffer 2). The resulting pellet was resuspended in buffer 2 and protein concentration was measured (BCA protein Assay, Pierce). The homogenate was kept cold during the whole procedure. The membranes were kept at −80° C. until use. Assay was performed in a 384 well Optiplate (PerkinElmer) in a total volume of 40 ul. Membranes were mixed with SPA beads.

[2] = biological target: T2, human amylin receptor (amylin 3(a) …); assay: cell-based or functional assay
[3] = biological target: T3, human calcitonin receptor; assay: cell-based or functional assay

Ratio hCT/hAmylin binding [1]	hAmylin-R funct. EC50 [2]	Ratio hCT/hAmylin funct. [3]	hCTR funct. EC50 [3]	Binder
26				{C20 diacid-γGlu-γGlu}-KCNTATCATQRLAEFLRHSSPNFGAIPSSTNVGSNTY-NH2 (disulfide 2-7 (inferred), analogue of human amylin; the name is printed with N^α1 twice; also called compound 15)
	0.175 nM	7.4	1.29 nM	KCNTATCATQRLAEFLRHSSPNFGAIPSSTNVGSNTY (C20 diacid-gGlu on the alpha amino group of the N-terminal residue; disulfide bridge Cys2-Cys7; C-terminal amide, also called compound 9) [N^α1-[(4S)-4-carboxy-4-(19-carboxynonadecanoylamino)butanoyl]-[Glu14,Arg17,Pro21,Pro27]-h-amylin]
	0.433 nM	23.1	10 nM	KCNTATCATQRLANFLRHSSPNFGAIPSSTNVGSNTY (C20 diacid-gGlu-2xOEG on the alpha amino group of the N-terminal residue; disulfide bridge Cys2-Cys7; C-terminal amide, also called compound 24)
